# Source: IntAct's records for PubMed 24114786
# B1: BRASSINOSTEROID … 1-associated receptor kinase 1 (Arabidopsis thaliana (Mouse-ear cress)), Q94F62 (parent)
# chain: MERRLMIPCFFWLILVLDLVLRVSGNAEGDALSALKNSLADPNKVLQSWDATLVTPCTWFHVTCNSDNSVTRVDLGNANLSGQLVMQLGQLPNLQYLELYSNNITGTIPEQLGNLTELVSLDLYLNNLSGPIPSTLGRLKKLRFLRLNNNSLSGEIPRSLTAVLTLQVLDLSNNPLTGDIPVNGSFSLFTPISFANTKLTPLPASPPPPISPTPPSPAGSNRITGAIAGGVAAGAALLFAVPAIALAWWRRKKPQDHFFDVPAEEDPEVHLGQLKRFSLRELQVASDNFSNKNILGRGGFGKVYKGRLADGTLVAVKRLKEERTQGGELQFQTEVEMISMAVHRNLLRLRGFCMTPTERLLVYPYMANGSVASCLRERPESQPPLDWPKRQRIALGSARGLAYLHDHCDPKIIHRDVKAANILLDEEFEAVVGDFGLAKLMDYKDTHVTTAVRGTIGHIAPEYLSTGKSSEKTDVFGYGVMLLELITGQRAFDLARLANDDDVMLLDWVKGLLKEKKLEALVDVDLQGNYKDEEVEQLIQVALLCTQSSPMERPKMSEVVRMLEGDGLAERWEEWQKEEMFRQDFNYPTHHPAVSGWIIGDSTSQIENEYPSGPR
# B2: A-type flagellin (Pseudomonas aeruginosa), P21184 (parent)
# chain: MALTVNTNIASLNTQRNLNNSSASLNTSLQRLSTGSRINSAKDDAAGLQIANRLTSQVNGLNVATKNANDGISLAQTAEGALQQSTNILQRMRDLSLQSANGSNSDSERTALNGEVKQLQKELDRISNTTTFGGRKLLDGSFGVASFQVGSAANEIISVGIDEMSAESLNGTYFKADGGGAVTAATASGTVDIAIGITGGSAVNVKVDMKGNETAEQAAAKIAAAVNDANVGIGAFSDGDTISYVSKAGKDGSGAITSAVSGVVIADTGSTGVGTAAGVTPSATAFAKTNDTVAKIDISTAKGAQSAVLVIDEAIKQIDAQRADLGAVQNRFDNTINNLKNIGENVSAARGRIEDTDFAAETANLTKNQVLQQAGTAILAQANQLPQSVLSLLR
# Variants of: B1
# Conditions: with flica_pseai fliC
row,Variant,effect of a mutation on the interaction
1,F60A;F144A,disrupting interaction strength
2,Y96A,decreasing interaction strength
3,L53A,decreasing interaction strength
4,V54Y,decreasing interaction strength

# Variants of: B1
# Conditions: with fls2_arath FLS2, Q9FL28
# Target sequence in this assay (Q9FL28 whole entry): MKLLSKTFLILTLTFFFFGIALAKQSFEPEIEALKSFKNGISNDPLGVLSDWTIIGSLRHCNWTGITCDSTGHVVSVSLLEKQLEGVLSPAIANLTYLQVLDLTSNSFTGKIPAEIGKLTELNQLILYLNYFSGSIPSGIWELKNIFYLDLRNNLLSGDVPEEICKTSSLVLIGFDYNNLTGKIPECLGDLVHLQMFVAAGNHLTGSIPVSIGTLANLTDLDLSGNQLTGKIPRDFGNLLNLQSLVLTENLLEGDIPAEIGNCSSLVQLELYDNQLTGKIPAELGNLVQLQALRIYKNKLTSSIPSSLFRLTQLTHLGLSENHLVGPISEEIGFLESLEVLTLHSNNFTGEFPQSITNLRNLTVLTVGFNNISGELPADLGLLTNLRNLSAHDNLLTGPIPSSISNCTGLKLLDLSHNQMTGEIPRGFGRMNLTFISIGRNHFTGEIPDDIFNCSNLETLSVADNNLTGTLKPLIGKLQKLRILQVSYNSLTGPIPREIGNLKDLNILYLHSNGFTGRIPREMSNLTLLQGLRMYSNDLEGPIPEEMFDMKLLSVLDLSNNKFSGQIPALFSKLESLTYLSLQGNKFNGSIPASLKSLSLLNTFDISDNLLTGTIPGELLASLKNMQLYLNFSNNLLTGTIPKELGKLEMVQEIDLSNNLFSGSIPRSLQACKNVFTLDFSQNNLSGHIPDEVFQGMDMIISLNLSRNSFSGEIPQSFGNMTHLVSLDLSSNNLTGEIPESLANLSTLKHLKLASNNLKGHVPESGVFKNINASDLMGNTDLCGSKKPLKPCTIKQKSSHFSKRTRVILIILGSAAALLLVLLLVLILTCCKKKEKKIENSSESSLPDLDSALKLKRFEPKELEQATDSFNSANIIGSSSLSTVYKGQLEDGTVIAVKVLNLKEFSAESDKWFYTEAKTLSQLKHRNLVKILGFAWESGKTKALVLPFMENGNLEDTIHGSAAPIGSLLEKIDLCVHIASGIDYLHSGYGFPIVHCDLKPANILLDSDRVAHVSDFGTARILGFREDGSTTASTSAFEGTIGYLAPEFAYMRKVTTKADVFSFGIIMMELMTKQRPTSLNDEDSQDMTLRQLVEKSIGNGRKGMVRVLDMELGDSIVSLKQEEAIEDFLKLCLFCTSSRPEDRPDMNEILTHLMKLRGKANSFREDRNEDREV
row,Variant,effect of a mutation on the interaction
1,F60A;F144A,disrupting interaction strength
2,Y96A,disrupting interaction strength
3,L53A,disrupting interaction strength
4,V54Y,disrupting interaction strength

# Variants of: B2
# Conditions: with bak1_arath BAK1, Q94F62
row,Variant,effect of a mutation on the interaction
1,MALTVNTNIASLNTQRNLNNSSASLNTSLQRLSTGSRINSAKDDAAALQIANRLTSQVNGLNVATKNANDGISLAQTAEGALQQSTNILQRMRDLSLQSANGSNSDSERTALNGEVKQLQKELDRISNTTTFGGRKLLDGSFGVASFQVGSAANEIISVGIDEMSAESLNGTYFKADGGGAVTAATASGTVDIAIGITGGSAVNVKVDMKGNETAEQAAAKIAAAVNDANVGIGAFSDGDTISYVSKAGKDGSGAITSAVSGVVIADTGSTGVGTAAGVTPSATAFAKTNDTVAKIDISTAKGAQSAVLVIDEAIKQIDAQRADLGAVQNRFDNTINNLKNIGENVSAARGRIEDTDFAAETANLTKNQVLQQAGTAILAQANQLPQSVLSLLR [G47A],decreasing interaction strength
2,MALTVNTNIASLNTQRNLNNSSASLNTSLQRLSTGSRINSAKDDAAYLQIANRLTSQVNGLNVATKNANDGISLAQTAEGALQQSTNILQRMRDLSLQSANGSNSDSERTALNGEVKQLQKELDRISNTTTFGGRKLLDGSFGVASFQVGSAANEIISVGIDEMSAESLNGTYFKADGGGAVTAATASGTVDIAIGITGGSAVNVKVDMKGNETAEQAAAKIAAAVNDANVGIGAFSDGDTISYVSKAGKDGSGAITSAVSGVVIADTGSTGVGTAAGVTPSATAFAKTNDTVAKIDISTAKGAQSAVLVIDEAIKQIDAQRADLGAVQNRFDNTINNLKNIGENVSAARGRIEDTDFAAETANLTKNQVLQQAGTAILAQANQLPQSVLSLLR [G47Y],disrupting interaction strength

# Variants of: B2
# Conditions: with fls2_arath FLS2, Q9FL28
# Target sequence in this assay (Q9FL28 whole entry): as the sequence (Q9FL28 whole entry) above
row,Variant,effect of a mutation on the interaction
1,MALTVNTNIASLNTQRNLNNSSASLNTSLQRLSTGSRINSAKADAAGLQIANRLTSQVNGLNVATKNANDGISLAQTAEGALQQSTNILQRMRDLSLQSANGSNSDSERTALNGEVKQLQKELDRISNTTTFGGRKLLDGSFGVASFQVGSAANEIISVGIDEMSAESLNGTYFKADGGGAVTAATASGTVDIAIGITGGSAVNVKVDMKGNETAEQAAAKIAAAVNDANVGIGAFSDGDTISYVSKAGKDGSGAITSAVSGVVIADTGSTGVGTAAGVTPSATAFAKTNDTVAKIDISTAKGAQSAVLVIDEAIKQIDAQRADLGAVQNRFDNTINNLKNIGENVSAARGRIEDTDFAAETANLTKNQVLQQAGTAILAQANQLPQSVLSLLR [D43A],disrupting interaction strength
2,MALTVNTNIASLNTQRNLNNSSASLNTSLQRLSTGSRINSAKDDAYGLQIANRLTSQVNGLNVATKNANDGISLAQTAEGALQQSTNILQRMRDLSLQSANGSNSDSERTALNGEVKQLQKELDRISNTTTFGGRKLLDGSFGVASFQVGSAANEIISVGIDEMSAESLNGTYFKADGGGAVTAATASGTVDIAIGITGGSAVNVKVDMKGNETAEQAAAKIAAAVNDANVGIGAFSDGDTISYVSKAGKDGSGAITSAVSGVVIADTGSTGVGTAAGVTPSATAFAKTNDTVAKIDISTAKGAQSAVLVIDEAIKQIDAQRADLGAVQNRFDNTINNLKNIGENVSAARGRIEDTDFAAETANLTKNQVLQQAGTAILAQANQLPQSVLSLLR [A46Y],decreasing interaction strength
3,MALTVNTNIASLNTQRNLNNSSASLNTSLQRLSTGSRINSAKDAAAGLQIANRLTSQVNGLNVATKNANDGISLAQTAEGALQQSTNILQRMRDLSLQSANGSNSDSERTALNGEVKQLQKELDRISNTTTFGGRKLLDGSFGVASFQVGSAANEIISVGIDEMSAESLNGTYFKADGGGAVTAATASGTVDIAIGITGGSAVNVKVDMKGNETAEQAAAKIAAAVNDANVGIGAFSDGDTISYVSKAGKDGSGAITSAVSGVVIADTGSTGVGTAAGVTPSATAFAKTNDTVAKIDISTAKGAQSAVLVIDEAIKQIDAQRADLGAVQNRFDNTINNLKNIGENVSAARGRIEDTDFAAETANLTKNQVLQQAGTAILAQANQLPQSVLSLLR [D44A],disrupting interaction strength
